The term Kd denotes the concentration at which binding is half-saturated. A high value points to a looser complex.

Like-named read-outs stand apart in the source and are kept apart here. A value given as a limit tells only on which side of the number the result lay.

Data on 5 molecules can be found in paper PMC8800109 (iScience, 2022).

Assay [1] deals with briakinumab (human). Put plainly: MST.
Assay [2] has as its target briakinumab-YTE (human). Put plainly: MST.
Assay [3] has as its target briakinumab-YTE/IL12 (human) (UniProt P29460). Put plainly: MST.
Assay [4] addresses briakinumab/IL12 (human) (UniProt P29460). Put plainly: MST.
For assay [5], the target named is ustekinumab-YTE/IL12 (human) (UniProt P29460). Put plainly: MST.
In assay [6] the target is briakinumab (human). Put plainly: MST. This is another data set of the same source.
The target in assay [7] is briakinumab-YTE (human). Put plainly: MST. The source holds these as a separate data set.
The target of assay [8] is briakinumab-YTE/IL12 (human) (UniProt P29460). Put plainly: MST. This is another data set of the same source.
Assay [9] deals with briakinumab/IL12 (human) (UniProt P29460). Put plainly: MST. The source holds these as a separate data set.
Assay [10] has as its target ustekinumab (human). Put plainly: MST.
For assay [11], the target named is ustekinumab-YTE (human). Put plainly: MST.
The target of assay [12] is ustekinumab-YTE/IL12 (human) (UniProt P29460). Put plainly: MST. The source holds these as a separate data set.
The next assay deals with ustekinumab/IL12 (human) (UniProt P29460). Put plainly: MST.
Assay [13] addresses briakinumab (human). Put plainly: SPR. A general note: Surface plasmon resonance follows binding to a sensor surface in real time, without labels.
The target of assay [14] is briakinumab-YTE (human). Put plainly: SPR.
Assay [15] has as its target ustekinumab (human). Put plainly: SPR.
In assay [16] the target is ustekinumab-YTE (human). Put plainly: SPR.
The target in assay [17] is recombinant form of hFcRn immobilized on the analytical FcRn column (UniProt P55899). Put plainly: analytical hFcRn affinity chromatography.
Chain of recombinant form of hFcRn immobilized on the analytical FcRn column (P55899 24-297, chain 1 of 2): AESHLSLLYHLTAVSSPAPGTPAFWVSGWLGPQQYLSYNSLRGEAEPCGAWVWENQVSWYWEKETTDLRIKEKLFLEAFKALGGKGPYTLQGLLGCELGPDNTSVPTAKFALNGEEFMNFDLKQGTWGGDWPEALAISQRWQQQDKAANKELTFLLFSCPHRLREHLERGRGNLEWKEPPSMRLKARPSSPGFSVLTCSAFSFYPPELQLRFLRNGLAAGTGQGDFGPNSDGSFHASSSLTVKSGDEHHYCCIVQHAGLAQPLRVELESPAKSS
Chain of recombinant form of hFcRn immobilized on the analytical FcRn column (P61769 21-119, chain 2 of 2, further chain): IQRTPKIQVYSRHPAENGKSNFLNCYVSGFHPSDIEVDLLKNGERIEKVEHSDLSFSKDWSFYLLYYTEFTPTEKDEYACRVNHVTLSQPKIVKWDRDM
Another assay has as its target recombinant human IL-12 (Homo sapiens, UniProt P29460;P29459). Put plainly: ELISA.

Turning to “truncated monomeric His-tagged hFcRn (from UniProt P55899 24-365; P61769 21-119) (receptor)”, the Kd was greater than 25000 nM in the assay with briakinumab (human) [1]; greater than 20000 nM in the assay with briakinumab-YTE (human) [2]; greater than 4000 nM in assay [3]; greater than 10000 nM with briakinumab/IL12 (human) [4]; greater than 20000 nM in [5]; 599 nM with briakinumab (human) [6]. The Kd was 79 nM with briakinumab-YTE (human) [7]; 98 nM in assay [8]; 533 nM with briakinumab/IL12 (human) [9]; 497 nM with ustekinumab (human) [10]; 100 nM with ustekinumab-YTE (human) [11]; 78 nM in assay [12]. In addition, the Kd turned out to be 1000 nM in the assay with ustekinumab/IL12 (human); 545 nM with briakinumab (human) [13]; 64 nM in the assay with briakinumab-YTE (human) [14]; 653 nM with ustekinumab (human) [15]; 95.5 nM with ustekinumab-YTE (human) [16].

On to ustekinumab (antibody), for which, in assay [17], the elution pH from the hFcRn column was 7.2 pH.

As for ustekinumab-YTE (antibody), the elution pH from the hFcRn column in assay [17] is 7.9 pH.

B1: briakinumab (antibody, V domains shown)
VH: QVQLVESGGGVVQPGRSLRLSCAASGFTFSSYGMHWVRQAPGKGLEWVAFIRYDGSNKYYADSVKGRFTISRDNSKNTLYLQMNSLRAEDTAVYYCKTHGSHDNWGQGTMVTVSS
VL: QSVLTQPPSVSGAPGQRVTISCSGSRSNIGSNTVKWYQQLPGTAPKLLIYYNDQRPSGVPDRFSGSKSGTSASLAITGLQAEDEADYYCQSYDRYTHPALLFGTGTKVTVL
With B1, the binding result with recombinant human IL-12 was “binds”.

B2: briakinumab-YTE (antibody, V domains shown)
VH: B1 VH
VL: B1 VL
Turning to B2, the binding result in the assay with recombinant human IL-12 was “binds”.
